# Columns and labels:
# Experiment in all cases: cell-based or functional assay
# [1] = target: T1, Botrytis cinerea fungal pheromone GPCR (Botrytis cinerea)
# T1 sequence: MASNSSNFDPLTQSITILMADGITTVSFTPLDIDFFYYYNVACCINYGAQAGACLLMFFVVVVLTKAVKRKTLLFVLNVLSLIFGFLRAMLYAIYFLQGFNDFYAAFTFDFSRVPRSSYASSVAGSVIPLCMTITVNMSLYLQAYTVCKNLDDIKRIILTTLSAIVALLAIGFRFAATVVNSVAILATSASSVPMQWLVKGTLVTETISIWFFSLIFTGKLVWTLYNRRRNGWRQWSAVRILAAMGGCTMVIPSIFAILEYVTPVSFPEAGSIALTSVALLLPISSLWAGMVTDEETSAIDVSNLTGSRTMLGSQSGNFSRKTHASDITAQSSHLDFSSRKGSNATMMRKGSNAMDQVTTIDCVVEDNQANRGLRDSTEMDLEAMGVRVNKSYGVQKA
# [2] = target: T2, Candida albicans fungal pheromone GPCR (Candida albicans)
# T2 sequence: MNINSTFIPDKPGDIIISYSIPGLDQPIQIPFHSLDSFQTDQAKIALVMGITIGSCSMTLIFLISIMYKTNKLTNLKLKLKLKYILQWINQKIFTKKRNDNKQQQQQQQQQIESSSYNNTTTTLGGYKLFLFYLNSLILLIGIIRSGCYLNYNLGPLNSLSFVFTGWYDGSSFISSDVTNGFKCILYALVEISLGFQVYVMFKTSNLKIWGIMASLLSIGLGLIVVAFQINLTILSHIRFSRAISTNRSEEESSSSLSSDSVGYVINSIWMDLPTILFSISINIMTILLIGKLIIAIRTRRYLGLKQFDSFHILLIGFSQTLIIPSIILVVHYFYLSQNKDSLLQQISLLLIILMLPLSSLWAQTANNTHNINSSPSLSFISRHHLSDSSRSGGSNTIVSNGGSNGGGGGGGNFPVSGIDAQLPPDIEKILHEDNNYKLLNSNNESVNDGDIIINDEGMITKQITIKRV
# [3] = target: T3, Candida glabrata fungal pheromone GPCR (Candida glabrata)
# T3 sequence: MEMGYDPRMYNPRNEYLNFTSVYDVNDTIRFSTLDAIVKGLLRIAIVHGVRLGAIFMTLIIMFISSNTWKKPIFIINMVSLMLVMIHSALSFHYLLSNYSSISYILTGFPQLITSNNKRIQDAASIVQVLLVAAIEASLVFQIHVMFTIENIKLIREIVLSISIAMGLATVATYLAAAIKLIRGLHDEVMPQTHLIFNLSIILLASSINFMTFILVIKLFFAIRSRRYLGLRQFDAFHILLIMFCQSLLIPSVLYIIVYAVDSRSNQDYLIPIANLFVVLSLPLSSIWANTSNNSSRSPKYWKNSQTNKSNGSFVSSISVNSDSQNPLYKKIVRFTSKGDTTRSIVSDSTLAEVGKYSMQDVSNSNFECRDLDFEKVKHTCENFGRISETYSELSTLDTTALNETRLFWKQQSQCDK
# [4] = target: Fusarium graminearum fungal pheromone GPCR (Fusarium graminearum)
# [5] = target: T4, Lodderomyces elongisporous fungal pheromone GPCR (Lodderomyces elongisporous)
# T4 sequence: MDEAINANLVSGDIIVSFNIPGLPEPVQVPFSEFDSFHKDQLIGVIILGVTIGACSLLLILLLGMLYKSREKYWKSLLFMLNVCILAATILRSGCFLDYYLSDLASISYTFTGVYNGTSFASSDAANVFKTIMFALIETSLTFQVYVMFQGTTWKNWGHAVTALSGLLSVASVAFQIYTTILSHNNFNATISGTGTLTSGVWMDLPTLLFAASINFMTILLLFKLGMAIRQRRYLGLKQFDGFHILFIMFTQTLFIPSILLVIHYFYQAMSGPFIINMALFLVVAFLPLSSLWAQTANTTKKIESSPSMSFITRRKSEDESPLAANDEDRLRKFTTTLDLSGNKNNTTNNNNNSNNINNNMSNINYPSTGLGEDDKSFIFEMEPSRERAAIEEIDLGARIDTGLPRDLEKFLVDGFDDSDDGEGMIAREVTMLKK
# [6] = target: Magnaporthe oryzea fungal pheromone GPCR (Magnaporthe oryzea)
# [7] = target: Paracoccidioides brasiliensis fungal pheromone GPCR (Paracoccidioides brasiliensis)
# [8] = target: T5, Saccharomyces cerevisiae Ste2 pheromone receptor, wild type (Saccharomyces cerevisiae) (UniProt D6VTK4)
# T5 sequence: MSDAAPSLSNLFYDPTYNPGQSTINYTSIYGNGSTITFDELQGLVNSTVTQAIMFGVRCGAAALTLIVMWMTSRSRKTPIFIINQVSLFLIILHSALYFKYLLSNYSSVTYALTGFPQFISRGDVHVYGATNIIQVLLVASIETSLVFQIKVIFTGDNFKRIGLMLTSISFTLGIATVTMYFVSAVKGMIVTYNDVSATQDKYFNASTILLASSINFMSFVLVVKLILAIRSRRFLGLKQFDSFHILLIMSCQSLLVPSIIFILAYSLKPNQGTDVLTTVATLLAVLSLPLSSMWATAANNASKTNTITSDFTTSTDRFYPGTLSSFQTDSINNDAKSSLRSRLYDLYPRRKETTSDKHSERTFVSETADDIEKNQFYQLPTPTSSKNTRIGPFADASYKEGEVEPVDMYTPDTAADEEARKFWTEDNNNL
substance,measurement,setting,value
Botrytis cinerea mating peptide pheromone …,EC50 (fluorescent reporter),[1],< 1 nM
Candida albicans mating peptide pheromone …,"EC50 (biosensor strain, fluorescence)",[2],4 nM
same,EC50 (fluorescent reporter),[2],51 nM
Candida glabrata mating peptide pheromone …,"EC50 (biosensor strain, fluorescence)",[3],3600 nM
Fusarium graminearum mating peptide pheromone […],EC50 (fluorescent reporter),[4],230 nM
Lodderomyces elongisporous mating peptide pheromone …,"EC50 (biosensor strain, fluorescence)",[5],51 nM
Magnaporthe oryzea mating peptide pheromone […],EC50 (fluorescent reporter),[6],5000 nM
Paracoccidioides brasiliensis mating peptide […],"EC50 (biosensor strain, fluorescence)",[7],34 nM
same,EC50 (fluorescent reporter),[7],9 nM
"S. cerevisiae α-Factor, wild type, … (peptide)","EC50 (biosensor strain, fluorescence)",[8],190 nM
